The values below come from patent US20220144956A1 (published 2022).

Positions count from the first letter of the chain named.

B1: XENP36169 H1.186 L1 (antibody, V domains shown)
VH: QLQVQESGPGLVKPSETLSLTCTVSGGSISESYFSWGWIRQPPGKGLEWIGSFYYGGKTYYNPSLKSRATISIDTSKNQFSLKLSSVTAADTAVYYCARGPTTIRGVIDSWGQGTLVTVSS
VL: EIVLTQSPATLSLSPGERATLSCRASQSVRSYLAWYQQKPGQAPRLLIYDASNRATGIPARFSGSGSGTDFTLTISSLEPEDFAVYYCQQRSNWPPTFGQGTKVEIK
B2: XENP36184 H1.201 L1 (antibody, V domains shown)
VH: B1 VH with E31N, S32A, T103L
VL: B1 VL
B3: XENP36167 H1.184 L1 (antibody, V domains shown)
VH: B1 VH with T103M
VL: B1 VL
B4: XENP36164 H1.181 L1 (antibody, V domains shown)
VH: B1 VH with E31N, T103M
VL: B1 VL
B5: XENP36171 H1.188 L1 (antibody, V domains shown)
VH: B1 VH with E31S, T103M
VL: B1 VL
B6: XENP36175 H1.192 L1 (antibody, V domains shown)
VH: B1 VH with E31T, T103M
VL: B1 VL
B7: XENP36185 H1.202 L1 (antibody, V domains shown)
VH: B1 VH with E31N, S32A
VL: B1 VL
B8: XENP36177 H1.194 L1 (antibody, V domains shown)
VH: B1 VH with E31T
VL: B1 VL
B9: XENP35104 H1.29 L1 (antibody, V domains shown)
VH: B1 VH with E31N, S35T, G57E, N78S, A98P, T103M
VL: B1 VL
B10: XENP34288 H1.1 L1 (antibody, V domains shown)
VH: B1 VH with E31N, G57E, N78S, A98P, T103V
VL: B1 VL
B11: XENP36170 H1.187 L1 (antibody, V domains shown)
VH: B1 VH with T103V
VL: B1 VL
B12: XENP35107 H1.36 L1 (antibody, V domains shown)
VH: B1 VH with E31N, G37S, G57E, N78S, A98P, T103M
VL: B1 VL
B13: XENP36183 H1.200 L1 (antibody, V domains shown)
VH: B1 VH with E31N, S32A, T103M
VL: B1 VL
B14: XENP36179 H1.196 L1 (antibody, V domains shown)
VH: B1 VH with E31Q, T103M
VL: B1 VL
B15: XENP36176 H1.193 L1 (antibody, V domains shown)
VH: B1 VH with E31T, T103L
VL: B1 VL
B16: H1.89 L1 XENP34545 (antibody, V domains shown)
VH: B1 VH with E31N, G57E, N78S, A98P, T103M, I104D
VL: B1 VL
B17: H1.87 L1 XENP34543 (antibody, V domains shown)
VH: B1 VH with E31N, G57E, N78S, A98P, T103Q
VL: B1 VL
B18: H1.84 L1 XENP34540 (antibody, V domains shown)
VH: B1 VH with E31N, G57E, N78S, A98P, T103E
VL: B1 VL
B19: H1 L1.3 XENP34566 (antibody, V domains shown)
VH: B1 VH with E31N, G57E, N78S, A98P, T103M
VL: B1 VL with A9P
B20: H1.98 L1 XENP34554 (antibody, V domains shown)
VH: B1 VH with E31N, G57E, N78S, A98P, T103M, V107A
VL: B1 VL
B21: H1.90 L1 XENP34546 (antibody, V domains shown)
VH: B1 VH with E31N, G57E, N78S, A98P, T103M, I104N
VL: B1 VL
B22: H1.99 L1 XENP34555 (antibody, V domains shown)
VH: B1 VH with E31N, G57E, N78S, A98P, T103M, V107S
VL: B1 VL
B23: H1.78 L1 XENP34534 (antibody, V domains shown)
VH: B1 VH with E31N, G57E, N78S, T103M
VL: B1 VL
B24: H1.83 L1 XENP34539 (antibody, V domains shown)
VH: B1 VH with E31N, G57E, N78S, A98P, T103A
VL: B1 VL
B25: H1.81 L1 XENP34537 (antibody, V domains shown)
VH: B1 VH with E31N, G57E, N78S, A98P, T102N, T103M
VL: B1 VL
B26: H1.107 L1 XENP34563 (antibody, V domains shown)
VH: B1 VH with E31N, G57E, N78S, A98P, T103M, L116T
VL: B1 VL
B27: H1.95 L1 XENP34551 (antibody, V domains shown)
VH: B1 VH with E31N, G57E, N78S, A98P, T103M, R105K
VL: B1 VL
B28: H1 L1.1 XENP34564 (antibody, V domains shown)
VH: B1 VH with E31N, G57E, N78S, A98P, T103M
VL: B1 VL with L4M
B29: H1 L1.5 XENP34568 (antibody, V domains shown)
VH: B1 VH with E31N, G57E, N78S, A98P, T103M
VL: B1 VL with A19V
B30: H1.102 L1 XENP34558 (antibody, V domains shown)
VH: B1 VH with E31N, G57E, N78S, A98P, T103M, S110H
VL: B1 VL
B31: H1.101 L1 XENP34557 (antibody, V domains shown)
VH: B1 VH with E31N, G57E, N78S, A98P, T103M, I108M
VL: B1 VL
B32: H1.105 L1 XENP34561 (antibody, V domains shown)
VH: B1 VH with E31N, G57E, N78S, A98P, T103M, S110Y
VL: B1 VL
B33: H1 L1.6 XENP34569 (antibody, V domains shown)
VH: B1 VH with E31N, G57E, N78S, A98P, T103M
VL: B1 VL with R24G
B34: H1 L1.2 XENP34565 (antibody, V domains shown)
VH: B1 VH with E31N, G57E, N78S, A98P, T103M
VL: B1 VL with A9G
B35: H1.85 L1 XENP34541 (antibody, V domains shown)
VH: B1 VH with E31N, G57E, N78S, A98P, T103S
VL: B1 VL
B36: H1.88 L1 XENP34544 (antibody, V domains shown)
VH: B1 VH with E31N, G57E, N78S, A98P, T103M, I104A
VL: B1 VL
B37: H1.100 L1 XENP34556 (antibody, V domains shown)
VH: B1 VH with E31N, G57E, N78S, A98P, T103M, I108F
VL: B1 VL
B38: H1.106 L1 XENP34562 (antibody, V domains shown)
VH: B1 VH with E31N, G57E, N78S, A98P, T103M, L116M
VL: B1 VL
B39: H1.103 L1 XENP34559 (antibody, V domains shown)
VH: B1 VH with E31N, G57E, N78S, A98P, T103M, S110L
VL: B1 VL
B40: H1 L1.4 XENP34567 (antibody, V domains shown)
VH: B1 VH with E31N, G57E, N78S, A98P, T103M
VL: B1 VL with L13V
B41: H1.82 L1 XENP34538 (antibody, V domains shown)
VH: B1 VH with E31N, G57E, N78S, A98P, T102S, T103M
VL: B1 VL
B42: H1.77 L1 XENP34533 (antibody, V domains shown)
VH: B1 VH with E31N, G57E, N78S, A90V, A98P, T103M
VL: B1 VL
B43: H1 L1.7 XENP34570 (antibody, V domains shown)
VH: B1 VH with E31N, G57E, N78S, A98P, T103M
VL: B1 VL with S28G
B44: H1.104 L1 XENP34560 (antibody, V domains shown)
VH: B1 VH with E31N, G57E, N78S, A98P, T103M, S110V
VL: B1 VL
B45: H1.91 L1 XENP34547 (antibody, V domains shown)
VH: B1 VH with E31N, G57E, N78S, A98P, T103M, I104V
VL: B1 VL

T1 sequence (P37173 23-166): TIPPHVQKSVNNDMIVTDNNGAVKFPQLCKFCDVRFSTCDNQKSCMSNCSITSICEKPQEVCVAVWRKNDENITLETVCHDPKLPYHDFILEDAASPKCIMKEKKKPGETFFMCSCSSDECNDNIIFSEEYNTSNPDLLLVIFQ

The first test concerns the target T1, human TGFßRII (antigen of the Octet experiments) (human, UniProt P37173 23-166).
Assay: not given
The Kd is the equilibrium constant for the complex coming apart. For the molecule B1, the Kd stood at 10.1 nM.

In the case of B2, the Kd amounted to 5.27 nM.

With B3, the dissociation constant (Kd) was 4.34 nM.

In the case of B4, the Kd is 2.29 nM.

Take B5: the Kd came to 4.19 nM.

Regarding B6, the Kd was 4.38 nM.

B7 registered a dissociation constant Kd of 7.4 nM.

For B8, the Kd worked out at 9.77 nM.

The molecule B9 yielded a Kd of 2.43 nM.

In the case of B10, binding was characterised by a dissociation constant (Kd) of 4.26 nM.

With B11, the dissociation constant (Kd) amounted to 9.08 nM.

B12: binding was put at a Kd of 2.89 nM.

B13: the Kd is 3.02 nM.

The molecule B14 showed a Kd of 3.69 nM.

B15: the affinity, expressed as Kd, was 7.15 nM.

A further test deals with T1, human TGFßRII (antigen of the Octet …). As to the kind of experiment: BLI (Octet). Background: BLI is a label-free optical method that tracks binding on a fibre tip over time.
Consider B16, for which the Kd was 0.141 nM.

Take B17: the dissociation constant (Kd) turned out to be 1.58 nM.

In turn, B18 returned a Kd of 4.16 nM.

The molecule B19 gave a dissociation constant (Kd) of 0.547 nM.

Take B20: the Kd worked out at 0.761 nM.

In turn, B21 came in with a Kd of 0.0747 nM.

B22: the Kd is 0.431 nM.

For B23, binding was characterised by a dissociation constant (Kd) of 0.699 nM.

B24 displayed a Kd of 3.47 nM.

In turn, B25 registered a Kd of 300 nM.

Regarding B26, the affinity, expressed as Kd, was 0.109 nM.

B27 had a Kd of 2.34 nM.

Turning to B28, binding was put at a Kd of 0.569 nM.

Take B29: the dissociation constant (Kd) worked out at 1.3 nM.

Molecule B30 displayed a dissociation constant Kd of 0.139 nM.

As to B31, binding was put at a Kd of 0.492 nM.

Molecule B32 yielded a Kd of 0.455 nM.

Take B33: the Kd amounted to 2.24 nM.

Consider B34, for which binding was put at a Kd of 0.361 nM.

Take B35: binding was characterised by a dissociation constant (Kd) of 4 nM.

In the case of B36, binding was put at a Kd of 0.402 nM.

B37 registered a Kd of 0.898 nM.

Molecule B38 came in with a Kd of 0.624 nM.

B39 came in with a Kd of 0.16 nM.

In turn, B40 gave a Kd of 0.601 nM.

B41 yielded a Kd of 2.41 nM.

B42 came in with a dissociation constant Kd of 0.749 nM.

As to B43, the Kd stood at 0.315 nM.

B44 came in with a Kd of 0.601 nM.

Molecule B45 gave a Kd of 0.512 nM.
